Measurements published in patent US20090099087A1 (STC UNM, published 2009).

Assays:
human plasmin [1] = target: T1, human plasmin (human, UniProt P00747 97-810, limits assumed); assay: chromogenic amidolytic inhibition assay, plasmin; reference full-length TFPI-2
Description: (§1) Trypsin and plasmin inhibition assays were performed as described elsewhere (Petersen et al., Biochemistry, 35:266-272, 1996). Briefly, trypsin and plasmin were incubated with various concentrations of inhibitor preparations for 15 minutes at 37° C. in a 96-well microtitration plate. The chromogenic substrate S-2251 was then added and residual amidolytic activity was measured in a Molecular Devices UVₘₐₓ kinetic microplate reader.

porcine trypsin [2] = target: T2, porcine trypsin (porcine, UniProt P00761 9-231); assay: chromogenic amidolytic inhibition assay, trypsin; reference BPTI
T2 sequence (P00761 9-231 limits assumed): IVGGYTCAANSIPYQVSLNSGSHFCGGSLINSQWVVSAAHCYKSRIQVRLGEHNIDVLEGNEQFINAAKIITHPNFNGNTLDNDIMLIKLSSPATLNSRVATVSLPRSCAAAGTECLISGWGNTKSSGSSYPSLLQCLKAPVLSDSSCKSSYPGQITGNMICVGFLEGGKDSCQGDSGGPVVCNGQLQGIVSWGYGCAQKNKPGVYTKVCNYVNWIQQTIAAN
Description: as §1

[3] = target: T3, factor VIIa-tissue factor complex (human recombinant factor VIIa with recombinant soluble human tissue factor) (human, UniProt P08709 61-466; P13726 33-251, limits assumed); assay: chromogenic (S-2288) amidolytic inhibition assay, FVIIa 50 nM / soluble TF 100 nM
T3 construct: The complex was formed from 50 nM factor VIIa and 100 nM soluble tissue factor in 5 mM CaCl2; Factor VIIa is itself a two-chain enzyme; also called FVIIa-TF; VIIa-TF
T3 sequence (P08709 61-466 limits assumed, chain 1 of 2): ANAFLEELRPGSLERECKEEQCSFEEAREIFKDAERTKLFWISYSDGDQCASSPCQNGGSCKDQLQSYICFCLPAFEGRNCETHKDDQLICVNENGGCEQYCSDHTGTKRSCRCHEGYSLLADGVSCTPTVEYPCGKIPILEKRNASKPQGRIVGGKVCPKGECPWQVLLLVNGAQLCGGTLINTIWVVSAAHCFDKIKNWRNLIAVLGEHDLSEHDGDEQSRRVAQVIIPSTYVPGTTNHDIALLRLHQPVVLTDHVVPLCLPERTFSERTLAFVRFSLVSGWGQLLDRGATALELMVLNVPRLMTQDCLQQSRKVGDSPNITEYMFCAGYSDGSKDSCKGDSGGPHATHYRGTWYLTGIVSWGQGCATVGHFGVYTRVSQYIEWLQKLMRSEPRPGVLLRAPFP
T3 sequence (P13726 33-251 limits assumed, chain 2 of 2): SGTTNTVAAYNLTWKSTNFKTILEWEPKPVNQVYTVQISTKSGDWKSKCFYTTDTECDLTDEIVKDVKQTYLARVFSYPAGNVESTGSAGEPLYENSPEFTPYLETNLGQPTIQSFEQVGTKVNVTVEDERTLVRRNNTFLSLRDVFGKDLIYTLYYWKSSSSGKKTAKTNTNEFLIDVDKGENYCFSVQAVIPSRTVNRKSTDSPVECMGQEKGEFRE
Description: (§2) Recombinant soluble human tissue factor (100 nM) and factor VIIa (50 nM) were incubated in a TBS-BSA buffer/5 mM CaCl₂ for 15 minutes at 37° C. Following this incubation, aliquots (100 μl) were dispensed into a 96-well microtitration plate and treated with serial dilutions of inhibitors dissolved in TBS buffer. After 15 minutes of incubation, 30 μl of S-2288 (final concentration, 1 mM) was added to each well and the absorbance at 405 nm was determined as described earlier.

human plasmin [4] = target: T1, human plasmin; assay: chromogenic amidolytic inhibition assay, plasmin; reference BPTI
Description: as §1

porcine trypsin [5] = target: T2, porcine trypsin; assay: chromogenic (S-2251) amidolytic inhibition assay, trypsin 50 nM
Description: as §1

human plasmin [6] = target: T1, human plasmin; assay: chromogenic (S-2251) amidolytic inhibition assay, plasmin 30 nM
Description: Example I provides an illustrative example of assessment of the inhibitory activity. […] The chromogenic substrate S-2251 (D-Val-Leu-Lys-p-nitroanilide; DiaPharma Group Inc., West Chester, Ohio) was then added and residual plasmin amidolytic activity was measured at 405 nm in a Molecular Devices UVₘₐₓ kinetic microplate reader.
as §1

porcine trypsin [7] = target: T2, porcine trypsin; assay: chromogenic amidolytic inhibition assay, trypsin; reference full-length TFPI-2
Description: as §1

human plasmin [8] = target: T1, human plasmin; assay: chromogenic amidolytic inhibition assay, plasmin; reference wild-type KD1
Description: as §1

human plasmin [9] = target: T1, human plasmin; assay: chromogenic amidolytic inhibition assay; reference wild-type KD1
Description: as §1, §2

[10] = target: T3, factor VIIa-tissue factor complex …; assay: as above
Description: as §1, §2

porcine trypsin [11] = target: T2, porcine trypsin; assay: as above
Description: as §1, §2

[12] = target: T3, factor VIIa-tissue factor complex …; assay: chromogenic amidolytic inhibition assay, FVIIa-TF; reference wild-type KD1
Description: as §2

T1 sequence (P00747 97-810 limits assumed): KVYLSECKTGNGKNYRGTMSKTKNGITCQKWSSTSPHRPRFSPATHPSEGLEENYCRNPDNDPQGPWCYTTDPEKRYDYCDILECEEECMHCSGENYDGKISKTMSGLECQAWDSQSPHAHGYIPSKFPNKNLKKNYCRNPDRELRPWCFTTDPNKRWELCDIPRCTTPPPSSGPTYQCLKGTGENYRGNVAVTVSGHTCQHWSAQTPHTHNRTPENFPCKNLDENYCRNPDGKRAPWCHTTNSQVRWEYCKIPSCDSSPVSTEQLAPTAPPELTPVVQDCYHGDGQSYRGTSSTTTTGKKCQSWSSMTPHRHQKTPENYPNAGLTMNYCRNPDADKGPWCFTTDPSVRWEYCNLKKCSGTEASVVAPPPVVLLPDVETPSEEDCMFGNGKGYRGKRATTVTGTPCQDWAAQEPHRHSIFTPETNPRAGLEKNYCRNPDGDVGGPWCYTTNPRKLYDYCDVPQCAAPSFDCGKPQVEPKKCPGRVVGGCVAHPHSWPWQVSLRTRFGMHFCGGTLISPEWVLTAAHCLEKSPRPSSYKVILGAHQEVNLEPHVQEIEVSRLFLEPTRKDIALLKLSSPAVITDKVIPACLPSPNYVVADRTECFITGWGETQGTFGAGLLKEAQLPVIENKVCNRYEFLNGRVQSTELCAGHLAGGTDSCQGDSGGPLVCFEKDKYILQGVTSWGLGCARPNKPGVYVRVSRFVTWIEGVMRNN

Row | Binder | Ki [3] | Ki (porcine trypsin [5]) | Ki (human plasmin [6]) | also measured
1 | wild-type first Kunitz-type domain (KD1) of human TFPI-2, His-tagged, E. coli (other, the monomer was purified; also called wild-type KD1; TFPI-2 KD1; not shown: N-terminal decahistidine-tag leader and enterokinase cleavage site from pET19b) DAAQEPTGNNAEICLLPLDYGPCRALLLRYYYDRYTQSCRQFLYGGCEGNANNFYTWEACDDACWRIEKVPKV | 1640 nM | 13 nM | 3 nM | fold more potent than full-length TFPI-2 (human plasmin [1]): 3 fold; fold less potent than BPTI (porcine trypsin [2]): 2 fold; fold higher Ki than BPTI (human plasmin [4]): ~3 fold; fold higher inhibitory activity than full-length TFPI-2 (porcine trypsin [7]): ~2 fold
2 | Y20A KD1 (other, Point mutant of His-tagged KD1, KD1 numbering; also called Y20A (Y11A); not shown: N-terminal decahistidine-tag leader and enterokinase cleavage site from pET19b) DAAQEPTGNNAEICLLPLDAGPCRALLLRYYYDRYTQSCRQFLYGGCEGNANNFYTWEACDDACWRIEKVPKV | 1350 nM | 8 nM | 16 nM | 
3 | R24Q KD1 (other, Point mutant of His-tagged KD1, KD1 numbering; also called R24Q (R15Q); not shown: N-terminal decahistidine-tag leader and enterokinase cleavage site from pET19b) DAAQEPTGNNAEICLLPLDYGPCQALLLRYYYDRYTQSCRQFLYGGCEGNANNFYTWEACDDACWRIEKVPKV | 55700 nM | 296 nM | 48 nM | 
4 | D19A KD1 (other, Point mutant of His-tagged KD1, KD1 numbering; also called D19A (D10A); not shown: N-terminal decahistidine-tag leader and enterokinase cleavage site from pET19b) DAAQEPTGNNAEICLLPLAYGPCRALLLRYYYDRYTQSCRQFLYGGCEGNANNFYTWEACDDACWRIEKVPKV | 1960 nM | 15 nM | 118 nM | fold loss of inhibitory activity (against wild-type KD1) (human plasmin [8]): ~40 fold
5 | R29A KD1 (other, Point mutant of His-tagged KD1, KD1 numbering; also called R29A (R20A); not shown: N-terminal decahistidine-tag leader and enterokinase cleavage site from pET19b) DAAQEPTGNNAEICLLPLDYGPCRALLLAYYYDRYTQSCRQFLYGGCEGNANNFYTWEACDDACWRIEKVPKV | 3930 nM | 52 nM | 12 nM | 
6 | G21D KD1 (other, Point mutant of His-tagged KD1, KD1 numbering; also called G21D (G12D); not shown: N-terminal decahistidine-tag leader and enterokinase cleavage site from pET19b) DAAQEPTGNNAEICLLPLDYDPCRALLLRYYYDRYTQSCRQFLYGGCEGNANNFYTWEACDDACWRIEKVPKV | 26000 nM | 42 nM | 59 nM | 
7 | R29D KD1 (other, Point mutant of His-tagged KD1, KD1 numbering; also called R29D (R20D); not shown: N-terminal decahistidine-tag leader and enterokinase cleavage site from pET19b) DAAQEPTGNNAEICLLPLDYGPCRALLLDYYYDRYTQSCRQFLYGGCEGNANNFYTWEACDDACWRIEKVPKV | 44600 nM | 4600 nM | 261 nM | 
8 | L26Q KD1 (other, Point mutant of His-tagged KD1, KD1 numbering; also called L26Q (L17Q); not shown: N-terminal decahistidine-tag leader and enterokinase cleavage site from pET19b) DAAQEPTGNNAEICLLPLDYGPCRAQLLRYYYDRYTQSCRQFLYGGCEGNANNFYTWEACDDACWRIEKVPKV | 54000 nM | 162 nM | 29 nM | fold reduction in inhibitory potency (against wild-type KD1) (human plasmin [9]): ≥ 10 fold; fold reduction in inhibitory potency (against wild-type KD1) [10]: ≥ 10 fold; fold reduction in inhibitory potency (against wild-type KD1) (porcine trypsin [11]): ≥ 10 fold
9 | R24K KD1 (other, also called R24K (R15K); R24K KD1 polypeptide; not shown: N-terminal extension from the expression vector) DAAQEPTGNNAEICLLPLDYGPCKALLLRYYYDRYTQSCRQFLYGGCEGNANNFYTWEACDDACWRIEKVPKV | 8550 nM | 8 nM | 0.85 nM | fold reduction of inhibitory activity (against wild-type KD1) [12]: ~5 fold
10 | F42A KD1 (other, Point mutant of His-tagged KD1, KD1 numbering; also called F42A (F33A); not shown: N-terminal decahistidine-tag leader and enterokinase cleavage site from pET19b) DAAQEPTGNNAEICLLPLDYGPCRALLLRYYYDRYTQSCRQALYGGCEGNANNFYTWEACDDACWRIEKVPKV | 61200 nM | 155 nM | 79 nM | 
11 | R29K KD1 (other, Point mutant of His-tagged KD1, KD1 numbering; also called R29K (R20K); not shown: N-terminal decahistidine-tag leader and enterokinase cleavage site from pET19b) DAAQEPTGNNAEICLLPLDYGPCRALLLKYYYDRYTQSCRQFLYGGCEGNANNFYTWEACDDACWRIEKVPKV | 1120 nM | 20 nM | 5 nM | 
12 | recombinant human tissue factor pathway inhibitor-2 (TFPI-2), full-length (other, Eukaryotically expressed recombinant full-length protein, described as a 213 amino acid polypeptide and prepared by a published method (Sprecher et al.); also called full-length TFPI-2; intact TFPI-2) DAAQEPTGNNAEICLLPLDYGPCRALLLRYYYDRYTQSCRQFLYGGCEGNANNFYTWEACDDACWRIEKVPKVCRLQVSVDDQCEGSTEKYFFNLSSMTCEKFFSGGCHRNRIENRFPDEATCMGFCAPKKIPSFCYSPKDEGLCSANVTRYYFNPRYRTCDAFTYTGCGGNDNNFVSREDCKRACAKALKKKKKMPKLRFASRIRKIRKKQF | 1910 nM | 21 nM | 9 nM | 
